How the values were obtained:
Eotaxin = biological target: T1, Eotaxin (Homo sapiens, UniProt P51671); assay: Micro-array analysis of chemokine binding peptides: Eotaxin
T1 construct: purchased 300-21
Procedure: (§1) (1) Printing: Chemokine (CK) solution (in water) was serially diluted with Print Reagent (GenTel BioSurfaces USA) to final concentrations of 50 μg and 25 μg/ml. BSA/BSA-Biotin control solutions (in water) were diluted with Print Reagent to 100 μg/ml. Amplified stock of M13 phage control (M13KEgIII Cloning Vector, New England Biolabs, Cat.No.E8101S) was stored in Tris Buffered Saline (TBS; pH7.5, 4° C.) and diluted with Print Reagent to the working titre (10^8 pfu/μl). An automated spotting robot (16 pin print tool, 0.4 mm head; BioRobotics, UK) was used to print the CK/BSA control/M13 control, 5 repeats per sample (CK 25 μg/ml and 50 μg/ml; BSA 100 μg/ml; M13 20 μl), on PATH Protein Microarray Slides (GenTel, Prod.No. 2-1005/-1025) at […], and 50-70% relative humidity. Printed micro-array slides were stored at Room Temperature (RT) or 4° C. for at least 24 h before use.
(§2) (2) Blocking: Block Buffer (500 μl/partition; PATHblock, GenTel, Prod.No. 2-1014) was applied to the slide for 1 hour at room temp (RT). After removal of Block Buffer, the slide was air dried for 25 minutes;
(§3) (3) Phage Presented Peptide Binding: Amplified recombinant phage stock was stored in TBS and diluted with Wash Buffer to working titer (10^7 pfu/μl). Recombinant phage suspension (300 μl) was applied per partition and incubated at RT for 1 hour with gentle agitation.
(§4) (4) First Washing: The slides were washed twice with Wash Buffer 300 μl/partition).
(§5) (5) Primary Antibody (Ab) Labeling: The slides were incubated with the Primary Ab (1 mg/ml diluted ×2500 (Wash Reagent), 300 μl; Mouse Anti-M13 monoclonal Ab; Amersham Biosciences, UK; Product Code 27-9420-01) for 45 minutes at RT.
(§6) (6) Second Washing: The slides were washed twice with Wash Buffer (300 μl/partition).
(§7) (7) Secondary Ab Labeling: The slides were incubated with Secondary Ab (1.5 mg/ml diluted ×5000 (Wash Reagent), 300 μl; Cy3-conjugated AffiniPure Goat Anti-Mouse IgG; Jackson ImmunoReserch Labs, USA; Product Code 115-165-062).
(§8) (8) Third Washing: The slides were washed twice with Wash Buffer (300 μl/partition).
(§9) (9) Rinse: the slides were rinsed twice with Rinse Buffer (PATHrinse, GenTel, Prod.No. 2-1018) then dried well.
(§10) (10) Scanning: The peptide-bound, labeled slide was scanned (Laser Intensity 80%, Gain 80%, Resolution 10 μm) with a ScanArray Life Scanner (Packard BioChip Technologies, USA).
(§11) (11) Analysis: Quantitative analysis of micro-array was performed by the SpotReader program of Niles Scientific (USA) and presented as Relative Fluorescence (RF) as a function of CK concentration. Micro-array readout (Cy3 fluorescence) was quantified to determine the relative binding affinities of a CBP for the CKs and by inference, the specificity of the CBP for binding to a CK.

MCP-4 = biological target: T2, MCP-4 (Homo sapiens, UniProt Q99616); assay: Micro-array analysis of chemokine binding peptides: MCP-4
T2 construct: purchased 300-24
T2 sequence (Q99616 17-98): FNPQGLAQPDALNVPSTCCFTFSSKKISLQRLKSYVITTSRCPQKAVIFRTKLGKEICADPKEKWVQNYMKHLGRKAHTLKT
Procedure: as §1, §2, §3, §4, §5, §6, §7, §8, §9, §10, §11

MCP-2 = biological target: T3, MCP-2 (Homo sapiens, UniProt P80075); assay: Micro-array analysis of chemokine binding peptides: MCP-2
T3 construct: purchased 300-15
T3 sequence (P80075 24-99): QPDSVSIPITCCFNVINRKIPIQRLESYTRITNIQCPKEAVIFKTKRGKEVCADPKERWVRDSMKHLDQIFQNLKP
Procedure: as §1, §2, §3, §4, §5, §6, §7, §8, §9, §10, §11

BCA-1 = biological target: T4, BCA-1 (Homo sapiens, UniProt O43927); assay: Micro-array analysis of chemokine binding peptides: BCA-1
T4 construct: purchased 300-47
T4 sequence (O43927 23-109): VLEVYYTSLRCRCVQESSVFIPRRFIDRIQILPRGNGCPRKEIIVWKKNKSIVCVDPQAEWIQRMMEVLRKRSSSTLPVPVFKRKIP
Procedure: as §1, §2, §3, §4, §5, §6, §7, §8, §9, §10, §11

TECK = biological target: T5, TECK (Homo sapiens, UniProt O15444); assay: Micro-array analysis of chemokine binding peptides: TECK
T5 construct: purchased 300-45
T5 sequence (O15444 24-150): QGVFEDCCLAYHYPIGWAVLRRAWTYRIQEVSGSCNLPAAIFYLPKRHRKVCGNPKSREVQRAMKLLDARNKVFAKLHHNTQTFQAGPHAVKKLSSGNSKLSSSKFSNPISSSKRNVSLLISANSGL
Procedure: as §1, §2, §3, §4, §5, §6, §7, §8, §9, §10, §11

Eotaxin 2 = biological target: T6, Eotaxin 2 (Homo sapiens, UniProt O00175); assay: Micro-array analysis of chemokine binding peptides: Eotaxin 2
T6 construct: purchased 300-33
T6 sequence (O00175 27-119): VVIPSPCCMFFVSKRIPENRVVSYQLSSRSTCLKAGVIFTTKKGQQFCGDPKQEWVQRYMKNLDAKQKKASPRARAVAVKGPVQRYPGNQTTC
Procedure: as §1, §2, §3, §4, §5, §6, §7, §8, §9, §10, §11

Eotaxin 3 = biological target: T7, Eotaxin 3 (Homo sapiens, UniProt Q9Y258); assay: Micro-array analysis of chemokine binding peptides: Eotaxin 3
T7 construct: purchased 300-48
T7 sequence (Q9Y258 24-94): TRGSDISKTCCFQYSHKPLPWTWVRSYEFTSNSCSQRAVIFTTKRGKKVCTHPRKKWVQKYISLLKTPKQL
Procedure: as §1, §2, §3, §4, §5, §6, §7, §8, §9, §10, §11

MCP-1 = biological target: T8, MCP-1 (Homo sapiens, UniProt P13500); assay: Micro-array analysis of chemokine binding peptides: MCP-1
T8 construct: purchased 300-04
T8 sequence (P13500 24-99): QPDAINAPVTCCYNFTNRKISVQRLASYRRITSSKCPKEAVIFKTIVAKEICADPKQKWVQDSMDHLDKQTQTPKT
Procedure: as §1, §2, §3, §4, §5, §6, §7, §8, §9, §10, §11

Lymphotactin = biological target: T9, Lymphotactin (Homo sapiens, UniProt P47992); assay: Micro-array analysis of chemokine binding peptides: Lymphotactin
T9 construct: purchased 300-20
T9 sequence (P47992 22-114): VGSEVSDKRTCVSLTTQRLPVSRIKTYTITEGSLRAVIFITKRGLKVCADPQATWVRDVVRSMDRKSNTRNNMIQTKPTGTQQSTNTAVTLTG
Procedure: as §1, §2, §3, §4, §5, §6, §7, §8, §9, §10, §11

GRO-β = biological target: T10, GRO-β (Homo sapiens, UniProt P19875); assay: Micro-array analysis of chemokine binding peptides: GRO-β
T10 construct: purchased 300-39
T10 sequence (P19875 35-107): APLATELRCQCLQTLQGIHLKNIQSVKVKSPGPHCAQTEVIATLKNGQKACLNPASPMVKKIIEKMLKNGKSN
Procedure: as §1, §2, §3, §4, §5, §6, §7, §8, §9, §10, §11

RANTES = biological target: T11, RANTES (Homo sapiens, UniProt P13501); assay: Micro-array analysis of chemokine binding peptides: RANTES
T11 construct: purchased 300-06
T11 sequence (P13501 24-91): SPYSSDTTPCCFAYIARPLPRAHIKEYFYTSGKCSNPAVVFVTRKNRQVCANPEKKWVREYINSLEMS
Procedure: as §1, §2, §3, §4, §5, §6, §7, §8, §9, §10, §11

IL-8 = assay: Micro-array analysis of chemokine binding peptides: IL-8
IL-8, sequence (P10145 28-99 limits assumed): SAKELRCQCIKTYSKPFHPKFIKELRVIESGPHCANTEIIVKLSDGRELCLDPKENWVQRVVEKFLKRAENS
Procedure: as §1, §2, §3, §4, §5, §6, §7, §8, §9, §10, §11

I-TAC = biological target: T12, I-TAC (Homo sapiens, UniProt O14625); assay: Micro-array analysis of chemokine binding peptides: I-TAC; conditions: limit = start of the upper 75% of that peptide's response range
T12 construct: purchased 300-46
T12 sequence (O14625 22-94): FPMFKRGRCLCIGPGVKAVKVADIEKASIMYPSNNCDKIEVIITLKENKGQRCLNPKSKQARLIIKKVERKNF
Procedure: as §1, §2, §3, §4, §5, §6, §7, §8, §9, §10, §11

Mig = biological target: T13, Mig (Homo sapiens, UniProt Q07325); assay: Micro-array analysis of chemokine binding peptides: Mig; conditions: limit = start of the upper 75% of that peptide's response range
T13 construct: purchased 300-26
T13 sequence (Q07325 23-125): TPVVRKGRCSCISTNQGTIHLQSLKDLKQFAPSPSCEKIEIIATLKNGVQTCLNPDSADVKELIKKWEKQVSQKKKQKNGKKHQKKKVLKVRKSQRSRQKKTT
Procedure: as §1, §2, §3, §4, §5, §6, §7, §8, §9, §10, §11

SDF1-β = biological target: T14, SDF1-β (Homo sapiens, UniProt P48061); assay: Micro-array analysis of chemokine binding peptides: SDF1-β
T14 construct: purchased 300-28b
T14 sequence (P48061 22-93): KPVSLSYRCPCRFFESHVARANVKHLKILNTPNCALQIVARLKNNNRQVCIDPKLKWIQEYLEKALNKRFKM
Procedure: as §1, §2, §3, §4, §5, §6, §7, §8, §9, §10, §11

Exodus-2 = biological target: T15, Exodus-2 (Homo sapiens, UniProt O00585); assay: Micro-array analysis of chemokine binding peptides: Exodus-2
T15 construct: purchased 300-35
T15 sequence (O00585 24-134): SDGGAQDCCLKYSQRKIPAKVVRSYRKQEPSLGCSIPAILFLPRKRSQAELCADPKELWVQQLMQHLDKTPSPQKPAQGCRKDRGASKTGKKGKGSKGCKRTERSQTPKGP
Procedure: as §1, §2, §3, §4, §5, §6, §7, §8, §9, §10, §11

SDF1-α = biological target: T16, SDF1-α (Homo sapiens, UniProt P48061); assay: Micro-array analysis of chemokine binding peptides: SDF1-α
T16 construct: purchased 300-28a
T16 sequence (P48061 22-89 limits assumed): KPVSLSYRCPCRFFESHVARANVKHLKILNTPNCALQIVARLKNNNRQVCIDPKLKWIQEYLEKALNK
Procedure: as §1, §2, §3, §4, §5, §6, §7, §8, §9, §10, §11

Fractalkine = biological target: T17, Fractalkine (Homo sapiens, UniProt P78423); assay: Micro-array analysis of chemokine binding peptides: Fractalkine
T17 construct: purchased 300-31
T17 sequence (P78423 25-100 limits assumed): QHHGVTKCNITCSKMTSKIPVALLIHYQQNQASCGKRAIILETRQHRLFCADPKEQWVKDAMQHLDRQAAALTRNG
Procedure: as §1, §2, §3, §4, §5, §6, §7, §8, §9, §10, §11

I-309 = biological target: T18, I-309 (Homo sapiens, UniProt P22362); assay: Micro-array analysis of chemokine binding peptides: I-309; conditions: limit = start of the upper 75% of that peptide's response range
T18 construct: purchased 300-37
T18 sequence (P22362 24-96): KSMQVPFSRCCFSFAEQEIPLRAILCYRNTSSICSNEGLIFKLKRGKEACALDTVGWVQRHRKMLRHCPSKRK
Procedure: as §1, §2, §3, §4, §5, §6, §7, §8, §9, §10, §11

[1] = limit = start of the upper 75% of that peptide's response range

T1 sequence (P51671 24-97): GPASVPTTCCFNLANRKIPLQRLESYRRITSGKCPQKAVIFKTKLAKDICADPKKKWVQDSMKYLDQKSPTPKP

DRYLNIVHAT [Ph-p18]
binding to Eotaxin, stated in words (Eotaxin): bound
binding to MCP-4, stated in words (MCP-4): bound
binding to MCP-2, stated in words (MCP-2): bound
binding to BCA-1, stated in words (BCA-1): bound
binding to TECK, stated in words (TECK): bound
binding to Eotaxin 2, stated in words (Eotaxin 2): bound
binding to Eotaxin 3, stated in words (Eotaxin 3): bound
binding to MCP-1, stated in words (MCP-1): bound
binding to Lymphotactin, stated in words (Lymphotactin): bound
binding to GRO-β, stated in words (GRO-β): bound
binding to RANTES, stated in words (RANTES): bound
binding to IL-8, stated in words (IL-8): bound
binding to I-TAC with relatively high affinity (Relative Fluorescence Units) (I-TAC): > 9,000 RFU
binding to Mig with relatively high affinity (Relative Fluorescence Units) (Mig): > 9,000 RFU

DYDY (listed as Homo sapiens) [Ph-p32]
binding to Eotaxin with relatively high affinity (Relative Fluorescence Units) (Eotaxin; [1]): > 10,000 RFU
binding to MCP-4 with relatively high affinity (Relative Fluorescence Units) (MCP-4; [1]): > 10,000 RFU
binding to MCP-2 with relatively high affinity (Relative Fluorescence Units) (MCP-2; [1]): > 10,000 RFU
binding to BCA-1, stated in words (BCA-1): bound
binding to TECK, stated in words (TECK): bound
binding to Eotaxin 2 with relatively high affinity (Relative Fluorescence Units) (Eotaxin 2; [1]): > 10,000 RFU
binding to SDF1-β, stated in words (SDF1-β): bound
binding to Eotaxin 3 with relatively high affinity (Relative Fluorescence Units) (Eotaxin 3; [1]): > 10,000 RFU
binding to Exodus-2, stated in words (Exodus-2): bound
binding to Lymphotactin, stated in words (Lymphotactin): bound
binding to GRO-β with relatively high affinity (Relative Fluorescence Units) (GRO-β; [1]): > 10,000 RFU
binding to RANTES with relatively high affinity (Relative Fluorescence Units) (RANTES; [1]): > 10,000 RFU
binding to IL-8 with relatively high affinity (Relative Fluorescence Units) (IL-8; [1]): > 10,000 RFU
binding to I-TAC with relatively high affinity (Relative Fluorescence Units) (I-TAC): > 10,000 RFU
binding to SDF1-α, stated in words (SDF1-α): bound
binding to Fractalkine, stated in words (Fractalkine): bound
binding to I-309 with relatively high affinity (Relative Fluorescence Units) (I-309): > 10,000 RFU
binding to Mig with relatively high affinity (Relative Fluorescence Units) (Mig): > 10,000 RFU
